Laboratory results reported in the Immune Epitope Database (IEDB).

molecular target: HLA-A*02:01; test: IEDB peptide-MHC binding, cellular MHC/competitive/fluorescence; ≥ and ≤ were set here for values at or beyond the usual limits of such assays; settings: source organism: Vaccinia virus WR

Sequence	IC50
SINSATESDA	32.7 µM
SINVDSTDEL	60.3 µM
SIPKETNELT	≥ 70 µM
SIPLMKRLT	≥ 70 µM
SIRIKIDKL	16.5 µM
SISIKLTDSL	6.24 µM
SISKSNAKCI	≥ 70 µM
SIVVELEPSL	7.93 µM
SLKRNAEGI	≥ 70 µM
SLSKRERQL	5.77 µM
SLVSYIKTT	5.37 µM
SMRLLHCVT	≥ 70 µM
SQHQHLAIM	13.5 µM
SQLSVLSSIT	11.5 µM
SQSERDNYIT	≥ 70 µM
SQSTDIVCET	26 µM
STAVNEEWLT	25.4 µM
STFSIGGVI	23.5 µM
STHRKVASST	51.5 µM
STILNSIDI	7.49 µM
STLPNKSDV	≥ 70 µM
STLPNKSDVL	46.5 µM
STMEDRPST	32.6 µM
STNFLANAST	≥ 70 µM
STNGKIVMT	≥ 70 µM
STPMTEYII	≥ 70 µM

Sequence	IC50
STSITVNEV	12.6 µM
STVASAQIHL	14.2 µM
SVDCNKELM	11.2 µM
SVEKVGINLV	50 µM
SVEPYTSNI	17.3 µM
SVETITEKT	≥ 70 µM
SVFAASKQQM	≥ 70 µM
SVFYRGAENI	20.8 µM
SVNKFKFGAA	≥ 70 µM
SVVTLLCVL	14.7 µM
TAASPMLYQL	≥ 70 µM
TACNNTIII	11.3 µM
TANVVFRYM	19.3 µM
TASGGKVLI	37.2 µM
TASGGKVLIT	≥ 70 µM
TASSDSLQT	54.9 µM
TAVEHIPTM	15.9 µM
TAVNEEWLT	27 µM
TAVNEEWLTA	25 µM
TIDGVSKKNI	≥ 70 µM
TIENALVASL	14.4 µM
TIGNQLYLT	18.3 µM
TIIERSKKFI	45.1 µM
TIKCSNLCT	8.78 µM
TIKISPGIA	37.4 µM
TIQESFIRFT	≥ 70 µM

Sequence	IC50
TIRVTSNGL	23.5 µM
TISMLIEVIL	≥ 70 µM
TLPNKSDVLI	5.32 µM
TLPSIFLIIT	9.73 µM
TLQKVLHVT	5.79 µM
TLSLSKQDI	11.7 µM
TLTGSPSST	28.6 µM
TMDGDKLSKL	≥ 70 µM
TMKIFYKHI	≥ 70 µM
TMPTYKHLI	27.3 µM
TMSTPMTEYI	7.95 µM
TQHPDYAILA	6.73 µM
TTDNKITSI	11.5 µM
TTLSRHIFM	6.42 µM
TTSDYQDSDV	11.9 µM
TTSEVVDML	6.04 µM
TTSSREERVL	≥ 70 µM
TTTSEVVDM	10 µM
TVELMNLKEL	50.6 µM
TVMNNLSELT	11.9 µM
TVPTMNNAKL	41.7 µM
TVRSIITDA	10.2 µM
TVSTIDGRI	≥ 70 µM
TVSTIDGRIV	≥ 70 µM
TVTNLISET	31.1 µM
TVTNLISETL	16.6 µM

Sequence	IC50
VALTIMGVI	8.94 µM
VANVVNHVLT	≥ 70 µM
VAPMPTASTA	25 µM
VARRKDQTA	37.7 µM
VATDPDADA	≥ 70 µM
VATDPDADAI	≥ 70 µM
VAVAAASST	13.5 µM
VIFLISVIV	13.6 µM
VIGASYISCT	17.8 µM
VIKCMIDEGA	9.87 µM
VISLLSMIT	5 µM
VISLLSMITM	10.8 µM
VISPMGKLT	8.49 µM
VIYPNFSKA	14.2 µM
VIYPNFSKAM	17.8 µM
VLTTPGLNHA	≥ 70 µM
VMETDRENA	8.08 µM
VQLVDAIDNI	13.3 µM
VTDTINTVL	13.6 µM
VTFNPVSDI	46.3 µM
VTINNLKMM	9.06 µM
VTKQDELQAA	14.3 µM
VTKTDGIPI	8.57 µM
VTKTDGIPIT	27.5 µM
VTKVNNYDDT	≥ 70 µM
VTLNAGNIDI	12.9 µM

Sequence	IC50
VTLNASQYA	5.01 µM
VTLQKVLHVT	35.9 µM
VTNKEGVKI	57.4 µM
VTSSGAIYKL	16.1 µM
VVELEPSLAT	≥ 70 µM
VVKYLSGGGI	≥ 70 µM
VVRRTMLSDI	8.52 µM
VVSRHLTNDA	≥ 70 µM
VVSSSTIAT	11 µM
VVYNPSTMST	57.8 µM
WIKTISKRM	23.6 µM
WLTAVEHIPT	6.96 µM
WTVYLIKLI	7.52 µM
YASIINRDII	7.11 µM
YIIRRSGCRI	43.1 µM
YIQETIRSDT	39.3 µM
YIRNTLTEKI	38.4 µM
YITSGKNNM	51.6 µM
YTVMVKINPT	9.38 µM
YVESKLVDI	25.3 µM
YVGSYASNGI	15.2 µM
YVSTGESSI	11.4 µM
YVTLNASQYA	23.1 µM

molecular target: HLA-A*02:01; test: IEDB peptide-MHC binding, purified MHC/competitive/radioactivity; ≥ and ≤ were set here for values at or beyond the usual limits of such assays; settings: source organism: Vaccinia virus WR

Sequence	IC50
MLYQLLEAV	0.0082 µM
